Laboratory results reported in patent publication US20100104568A1 (published 2010).
Each block holds one molecule with its values, some of them ahead of it.

Assays:
[1] = target: human RANK-L, full length, membrane-bound, expressed on HEK293T cells (human) (UniProt O14788); assay: FACS, HEK293T with human RANK-L, 400 pM Nanobody
[2] = target: cynomolgus RANK-L, full length, membrane-bound, expressed on HEK293T cells (cynomolgus monkey); assay: FACS, HEK293T with cynomolgus RANK-L, 400 pM Nanobody
[3] = target: human RANK-L, full length, membrane-bound, expressed on HEK293T cells (human) (UniProt O14788); assay: FACS, HEK293T with human RANK-L, 3.2 pM Nanobody
[4] = target: human RANK-L, full length, membrane-bound, expressed on HEK293T cells (human) (UniProt O14788); assay: FACS, HEK293T with human RANK-L, 80 pM Nanobody
[5] = target: human RANK-L, full length, membrane-bound, expressed on HEK293T cells (human) (UniProt O14788); assay: FACS, HEK293T with human RANK-L, 16 pM Nanobody
[6] = target: human RANK-L, full length, membrane-bound, expressed on HEK293T cells (human) (UniProt O14788); assay: FACS, HEK293T with human RANK-L, 2000 pM Nanobody
[7] = target: cynomolgus RANK-L, full length, membrane-bound, expressed on HEK293T cells (cynomolgus monkey); assay: FACS, HEK293T with cynomolgus RANK-L, 2000 pM Nanobody
human RANK-L [8] = target: T1, human RANK-L (human, UniProt O14788 140-317); assay: competition ELISA
T1 chain: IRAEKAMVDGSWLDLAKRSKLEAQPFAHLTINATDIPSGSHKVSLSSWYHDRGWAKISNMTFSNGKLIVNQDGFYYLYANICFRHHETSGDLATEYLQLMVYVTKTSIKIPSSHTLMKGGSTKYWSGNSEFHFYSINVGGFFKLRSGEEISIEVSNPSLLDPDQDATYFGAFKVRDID

human RANK-L [9] = target: T1, human RANK-L; assay: competition ELISA
human RANK-L [10] = target: T1, human RANK-L; assay: cell-based or functional assay

- EC50 (human RANK-L [8]): 0.0409 nM
B1: RANKL003p (VHH)
chain: EVQLVESGGGLVQPGGSLRLSCAASGRTFSRSAMGWFRQAPGKGREFVGFITGSGGTTYYADSVKGRFTISRDNAQNPVYLQMNSLRPEDTAVYYCAVYRRTYISSTYSESSEYDYWGQGTLVTVSSGGGGSGGGGSGGGGSGGGGSGGGGSGGGGSEVQLVESGGGLVQPGGSLRLSCAASGRTFSRSAMGWFRQAPGKGREFVGFITGSGGTTYYADSVKGRFTISRDNAQNPVYLQMNSLRPEDTAVYYCAVYRRTYISSTYSESSEYDYWGQGTLVTVSSGGGC
modifications: PEGylated with maleimide PEG, average MW 40,000; residue not stated (the entry ends in GGGC)

- IC50, RANK-L induced NF-kappaB reporter (luciferase) in HEK293T (human RANK-L [10]): 6.03 nM
B3: osteoprotegerin (receptor, UniProt O00300 22-401, looked up)
chain: ETFPPKYLHYDEETSHQLLCDKCPPGTYLKQHCTAKWKTVCAPCPDHYYTDSWHTSDECLYCSPVCKELQYVKQECNRTHNRVCECKEGRYLEIEFCLKHRSCPPGFGVVQAGTPERNTVCKRCPDGFFSNETSSKAPCRKHTNCSVFGLLLTQKGNATHDNICSGNSESTQKCGIDVTLCEEAFFRFAVPTKFTPNWLSVLVDNLPGTKVNAESVERIKRQHSSQEQTFQLLKLWKHQNKDQDIVKKIIQDIDLCENSVQRHIGHANLTFEQLRSLMESLPGKKVGAEDIEKTIKACKPSDQILKLLSLWRIKNGDQDTLKGLMHALKHSKTYHFPKTVTQSLKKTIRFLHSFTMYKLYQKLFLEMIGNQVQSVKISCL

Further lines, the molecule ahead of its results:

Molecule: irrelevant Nanobody (VHH)
- PE mean fluorescence [1]: 90
- PE mean fluorescence [2]: 140
- PE mean fluorescence [3]: 84
- PE mean fluorescence [4]: 82
- PE mean fluorescence [5]: 77
- PE mean fluorescence [6]: 87
- PE mean fluorescence [7]: 149

B2: RANKL001p (VHH)
chain: EVQLVESGGGLVQPGGSLRLSCAASGFTFSSYPMGWFRQAPGKGREFVSSITGSGGSTYYADSVKGRFTISRDNAKNTLYLQMNSLRPEDTAVYYCAAYIRPDTYLSRDYRKYDYWGQGTLVTVSSGGGGSGGGSEVQLVESGGGLVQPGGSLRLSCAASGFTFSSYPMGWFRQAPGKGREFVSSITGSGGSTYYADSVKGRFTISRDNAKNTLYLQMNSLRPEDTAVYYCAAYIRPDTYLSRDYRKYDYWGQGTLVTVSSGGGC
modifications: PEGylated with maleimide PEG, average MW 40,000; residue not stated (the entry ends in GGGC)
- IC50 (human RANK-L [9]): 0.0465 nM
